Results: paper PMC9891502

What was measured:
[1] = target: full-length gB (Towne strain) expressed on HEK293T cells (UniProt P13201); test: flow cytometry on cells; details: three-point, 10-fold mAb serial dilution starting at 0.1 μg/mL; parent: 94
[2] = target: CMV gB ectodomain protein; test: ELISA; details: parent: 171.7

Row | Substance | other: AUC [1] [AUC] | EC50 [2] [µg/mL]
1 | TRL345 unmutated common ancestor (UCA) mAb H:A33N; H:Y52aN | 140 | 
2 | TRL345 unmutated common ancestor (UCA) mAb H:A33N; L:N53D | 180 | 
3 | TRL345 unmutated common ancestor (UCA) mAb H:Y52aN; L:N53D | 109 | 0.0094
4 | TRL345 unmutated common ancestor (UCA) mAb H:Y52aN; L:S30G | 124 | 
5 | TRL345 unmutated common ancestor (UCA) mAb H:A33N; L:S30G | 207 | 
6 | TRL345 unmutated common ancestor (UCA) mAb H:A33N; L:S30G; L:N53D | 138 | 
7 | TRL345 unmutated common ancestor (UCA) mAb H:Y52aN |  | 0.0851
8 | TRL345 unmutated common ancestor (UCA) mAb L:S30G; L:N53D | 107 | 
9 | TRL345 unmutated common ancestor (UCA) mAb H:A33N; H:Y52aN; L:N53D | 143 | 
10 | TRL345 unmutated common ancestor (UCA) mAb H:Y52aN; L:S30G; L:N53D |  | 0.0077
11 | TRL345 unmutated common ancestor (UCA) mAb H:A33N; H:Y52aN; L:S30G | 144 | 
12 | TRL345 unmutated common ancestor (UCA) mAb L:N53D | 90 | 0.0197
13 | TRL345 unmutated common ancestor (UCA) mAb L:S30G |  | 0.0127
